Assay results reported in the supplement of paper PMC12042874.
± gives the uncertainty stated by the source.

Assay: amyloid nucleation score (Sup35N fusion, yeast selection) (log enrichment); library NNK2; higher = more nucleation; inactive = no reads after selection
Procedure, shortened: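 After 24 hours of induction with 100 μM copper sulfate, psi-negative yeast expressing peptides of 20 random codons fused to Sup35N were grown for 7 days at 30°C on medium lacking adenine and uracil. Input and output plasmid inserts were sequenced with Illumina, and sequences with under 100 input reads were discarded. Scores for nucleation are the DiMSum log enrichment of output over input reads, centred on the mode score of non-aggregating sequences.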

Substance | amyloid nucleation score
DRVLRVDSLSAVAVNNLVVR | -0.178 ± 1.1
RQLAFFLIYPHGASVTYWAP | -0.956 ± 1.1
SNGYYSNGPTLLHATTHVTV | -0.431 ± 0.64
QHSLAMSSHKLSTTVEESWP | 0.818 ± 0.45
YKWSQASTNGHARISSAQQS | 2.46 ± 0.11
DFSWNGGNFTFVFSKCGL | 2 ± 0.22
CEFQILSN | -0.381 ± 0.56
LSLWTIGISPVGYRLTNRHQ | -0.315 ± 1
LCNGKAPCFKLCIRCLVGLW | 2.82 ± 0.13
KTIPSGVVGWVSEGQRSTNR | 7.87 ± 0.08
CYARSASGVAIAVRRKRGVQ | 1.23 ± 0.18
SFNEMILHLIPRSCSLKKYI | -0.441 ± 0.28
LVYNI | -0.081 ± 1.1
QNACH | -0.011 ± 1.1
CCFRLLGYAGN | -0.961 ± 0.5
HYRIWVMHMWDCYWTTNFHG | -0.393 ± 0.63
QFVGFVRWFVWEWGLLVID | 0.706 ± 0.81
SAWQRIEWL | -0.339 ± 0.64
MNCVGG | -0.389 ± 0.61
HVFFHFRDVTSGL | 4.64 ± 0.065
NGQFGTSHGMVGTGVSLRG | -0.012 ± 0.65
FSFIGFLNRNKSAALCKMDI | -1.16 ± 0.76

Substance | amyloid nucleation score
CIKLRR | inactive
DSFSSWYDFQFVWSVTVNRM | inactive
AFQWYLM | -0.693 ± 0.18
VWYYGSRKCHAVYLRNRMSV | -0.192 ± 0.41
LVQFHRLPRTRWGEFVRGDH | 3.84 ± 0.092
FYSGKRARMGGEGGEKTPRS | -1.2 ± 0.48
FFGRGSHKAGYYSCTTSLTQ | 1.07 ± 0.16
AVEQWQ | 1.58 ± 0.37
GYGRLIWLGACRL | 1.18 ± 0.48
NNMPFCNYEAFNFYNGMSAF | -1.55 ± 1.1
RLGEWGFNRLVWFNKEAVCS | 0.495 ± 0.47
YEGYLVSVQLRRMWDVQLGP | 3.79 ± 0.054
TQLSV | -0.046 ± 1
VRKGHPYALELLSCYVGCQP | 1.18 ± 0.25
AKKLMSWEAVVLWGASRCVT | 1.08 ± 0.42
IYEQPG | 0.012 ± 0.54
QAHATFSILRTISAVFSPMQ | 5.973 ± 0.057
MKSSPA | -0.395 ± 0.32
ALAACSNSRG | 0.416 ± 0.54
YAVAEGFVASGYWTAYMPLS | 0.487 ± 0.62
SYYMISY | 2.05 ± 0.12
HGHLHYLMNR | -0.031 ± 1

Substance | amyloid nucleation score
RRSNLGNWFDV | 0.285 ± 1
TYFVVGDSLSVIFSGRNWGV | 5.408 ± 0.043
SAFSFTSLSKYGLFSFCVVR | -0.274 ± 0.63
QPCLHAMV | 0.319 ± 0.56
TDLIINMSQNR | 2.42 ± 0.1
PMFYGCGPKLCDYYMNVLFV | 2.85 ± 0.12
ITFRTYILPDSWIRPRTFEK | 3.29 ± 0.054
DVQHFIWCCNATVTYPLLVL | 1.27 ± 0.22
FFTGFDLVPVSYI | inactive
MCVCCYSIRGLVTGWLWLMA | 4 ± 0.061
NCSLCFENGMAYFCILIEGV | 5.645 ± 0.043
VCVFTDLGCRY | -0.493 ± 1.1
LVTKSAGLKGGLMRGDRSRK | 0.585 ± 0.37
CSKLAGKHVNISVGPLWRAG | 0.183 ± 0.53
PLSGWYQYIRDGVLSVWLSV | 0.713 ± 0.74
GYFAYRVICNVVGDTGFSLA | -0.06 ± 1.1
CTAQRNGKYDHGEDSLRLSR | 1.49 ± 0.36
KYMCSLMEATFLYNGSALRC | -1.6 ± 1.1
TNAIYRGVLGSMDQGT | inactive
GFHSCG | 4.85 ± 0.067
WWKGWARTNNVMRAFVVMFY | -0.655 ± 0.44
HKFIPAVVSCMQGNMKNYWS | -0.166 ± 0.5

Substance | amyloid nucleation score
LRFYAFRLDALSLISKSGVQ | 1.08 ± 0.36
WSMVTVLRGDRG | 0.525 ± 0.54
RLLRLDQKQIMVRSSSAVLR | -0.107 ± 0.32
NIAKSEILRIWNWW | inactive
GLKTMLY | -0.227 ± 0.27
ETVFRLFFSYRGVANHVVPG | -0.408 ± 0.63
MDSMWPSVGGALKSRSGVFR | -0.126 ± 0.39
KLSLNVLGSRSERWLLLFSC | -0.291 ± 0.79
RYVGRDR | inactive
TETTVFILLFWLLVILGRVH | inactive
WSIVGLGSRCWREVASCSTV | 0.636 ± 0.49
RIDRFLFASGHEGYAVN | 4.507 ± 0.033
SLVTISFLGLFGSSSALVVA | -0.114 ± 1.1
LMFCTRFSLYTGSWFWSSVT | 1.57 ± 0.18
WERMFRPHIFVLFSSGQLSS | 5.01 ± 0.052
FMQGPFNYTRMLSL | -0.808 ± 1.1
AYRQMYTGNVR | 3.97 ± 0.067
SADDL | 0.972 ± 0.39
LNLLNPWYSCKQSRVYNGYI | -1.31 ± 0.54
TGCVKGYSSRWWESFYGGTR | -0.762 ± 0.79
